Data: article doi:10.1101/2022.05.23.493104 (bioRxiv, 2022)

B1: P132L-mVenusHis (caveolin-1 P132L with C-terminal mVenus, E. coli expression) (natural protein, human)
chain: MSGGKYVDSEGHLYTVPIREQGNIYKPNNKAMADELSEKQVYDAHTKEIDLVNRDPKHLNDDVVKIDFEDVIAEPEGTHSFDGIWKASFTTFTVTKYWFYRLLSALFGIPMALIWGIYFAILSFLHIWAVVLCIKSFLIEIQCISRVYSIYVHTVCDPLFEAVGKIFSNVRINLQKEI
B2: P132L-His (caveolin-1 P132L, E. coli expression) (natural protein, human)
chain: MSGGKYVDSEGHLYTVPIREQGNIYKPNNKAMADELSEKQVYDAHTKEIDLVNRDPKHLNDDVVKIDFEDVIAEPEGTHSFDGIWKASFTTFTVTKYWFYRLLSALFGIPMALIWGIYFAILSFLHIWAVVLCIKSFLIEIQCISRVYSIYVHTVCDPLFEAVGKIFSNVRINLQKEI

Legend:
[1] = molecular target: the molecule itself; assay: negative stain electron microscopy
[2] = molecular target: T1, CAV1-His (wild type caveolin-1, E. coli expression) (human, UniProt Q03135 1-178); assay: negative stain electron microscopy
T1 sequence: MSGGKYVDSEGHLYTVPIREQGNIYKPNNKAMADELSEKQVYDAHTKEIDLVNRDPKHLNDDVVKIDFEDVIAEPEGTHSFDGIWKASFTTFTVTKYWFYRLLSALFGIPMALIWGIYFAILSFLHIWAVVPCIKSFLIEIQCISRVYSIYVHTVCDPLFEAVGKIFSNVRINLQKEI

Binder | binding result [1] | binding result [2]
B1 | binds | binds
B2 | binds | –
